Drawing on US7262274, this text covers allo-stimulatory capacity of CD1a+ DC in a mixed lymphocyte reaction (MLR) for one substance.

A value given as a limit tells only on which side of the number the result lay.

This assay has as its target human RANK, full length (expressed in or on cells) (human) (UniProt Q9Y6Q6). Nature of the assay: cell-based or functional assay.
Chain of UniProt Q9Y6Q6 (Q9Y6Q6 30-616 limits assumed): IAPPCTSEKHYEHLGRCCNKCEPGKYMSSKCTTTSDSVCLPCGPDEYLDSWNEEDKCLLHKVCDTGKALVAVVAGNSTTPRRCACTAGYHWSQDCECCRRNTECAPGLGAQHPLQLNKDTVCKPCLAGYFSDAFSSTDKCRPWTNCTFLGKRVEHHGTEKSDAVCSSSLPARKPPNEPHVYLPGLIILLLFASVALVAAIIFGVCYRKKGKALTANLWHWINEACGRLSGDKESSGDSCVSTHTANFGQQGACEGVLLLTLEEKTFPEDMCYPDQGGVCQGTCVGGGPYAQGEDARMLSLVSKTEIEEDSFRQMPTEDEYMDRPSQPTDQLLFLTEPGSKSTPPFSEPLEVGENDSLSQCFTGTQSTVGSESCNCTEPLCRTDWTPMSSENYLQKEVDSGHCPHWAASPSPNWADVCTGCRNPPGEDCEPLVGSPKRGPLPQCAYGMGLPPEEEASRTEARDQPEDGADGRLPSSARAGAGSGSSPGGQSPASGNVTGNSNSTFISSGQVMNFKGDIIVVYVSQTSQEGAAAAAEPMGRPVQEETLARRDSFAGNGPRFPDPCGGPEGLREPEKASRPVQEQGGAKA

Substance “RANKL (species and construct not stated at the place of use) (ligand)” had an allo-stimulatory capacity of CD1a+ DC in a mixed lymphocyte reaction (MLR) above 10 fold.
